Experimental data published in PMC12090219, “Reversible Substrate-Specific Photocontrol of the Chemotherapeutic Asparaginase(-Glutaminase) from Escherichia coli” (ACS Catalysis, 2025).

T1: wild-type Escherichia coli type II asparaginase (E. coli), P00805
T1 chain: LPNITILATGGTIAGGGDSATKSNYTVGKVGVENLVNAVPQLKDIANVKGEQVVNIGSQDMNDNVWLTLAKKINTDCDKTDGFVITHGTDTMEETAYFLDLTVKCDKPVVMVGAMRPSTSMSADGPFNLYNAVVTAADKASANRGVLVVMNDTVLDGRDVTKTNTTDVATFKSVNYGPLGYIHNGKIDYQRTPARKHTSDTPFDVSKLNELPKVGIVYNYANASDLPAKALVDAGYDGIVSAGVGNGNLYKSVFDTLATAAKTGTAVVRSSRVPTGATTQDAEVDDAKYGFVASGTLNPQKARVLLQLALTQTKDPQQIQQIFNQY

B1: wild-type Escherichia coli type II asparaginase, P00805 23-348 (enzyme)
chain: LPNITILATGGTIAGGGDSATKSNYTVGKVGVENLVNAVPQLKDIANVKGEQVVNIGSQDMNDNVWLTLAKKINTDCDKTDGFVITHGTDTMEETAYFLDLTVKCDKPVVMVGAMRPSTSMSADGPFNLYNAVVTAADKASANRGVLVVMNDTVLDGRDVTKTNTTDVATFKSVNYGPLGYIHNGKIDYQRTPARKHTSDTPFDVSKLNELPKVGIVYNYANASDLPAKALVDAGYDGIVSAGVGNGNLYKSVFDTLATAAKTGTAVVRSSRVPTGATTQDAEVDDAKYGFVASGTLNPQKARVLLQLALTQTKDPQQIQQIFNQY
B2: EcAII-S19AzoF (enzyme, E. coli)
chain: LPNITILATGGTIAGGGDFATKSNYTVGKVGVENLVNAVPQLKDIANVKGEQVVNIGSQDMNDNVWLTLAKKINTDCDKTDGFVITHGTDTMEETAYFLDLTVKCDKPVVMVGAMRPSTSMSADGPFNLYNAVVTAADKASANRGVLVVMNDTVLDGRDVTKTNTTDVATFKSVNYGPLGYIHNGKIDYQRTPARKHTSDTPFDVSKLNELPKVGIVYNYANASDLPAKALVDAGYDGIVSAGVGNGNLYKSVFDTLATAAKTGTAVVRSSRVPTGATTQDAEVDDAKYGFVASGTLNPQKARVLLQLALTQTKDPQQIQQIFNQY
modifications: phenylalanine-4'-azobenzene (AzoF) at position 19
notes: type II L-asparaginase (EcAII) from E. coli, gene ansB, UniProt P00805, with the unnatural amino acid AzoF in place of S19; The new residue is the unnatural amino acid phenylalanine-4'-azobenzene; the as-isolated state is ~100% E; also called EcAII with phenylalanine-4'-azobenzene at position S19
B3: EcAII-T21AzoF (enzyme, E. coli)
chain: LPNITILATGGTIAGGGDSAFKSNYTVGKVGVENLVNAVPQLKDIANVKGEQVVNIGSQDMNDNVWLTLAKKINTDCDKTDGFVITHGTDTMEETAYFLDLTVKCDKPVVMVGAMRPSTSMSADGPFNLYNAVVTAADKASANRGVLVVMNDTVLDGRDVTKTNTTDVATFKSVNYGPLGYIHNGKIDYQRTPARKHTSDTPFDVSKLNELPKVGIVYNYANASDLPAKALVDAGYDGIVSAGVGNGNLYKSVFDTLATAAKTGTAVVRSSRVPTGATTQDAEVDDAKYGFVASGTLNPQKARVLLQLALTQTKDPQQIQQIFNQY
modifications: phenylalanine-4'-azobenzene (AzoF) at position 21
notes: type II L-asparaginase (EcAII) from E. coli, gene ansB, UniProt P00805, with the unnatural amino acid AzoF in place of T21; The new residue is the unnatural amino acid phenylalanine-4'-azobenzene; the as-isolated state is ~100% E; also called EcAII with phenylalanine-4'-azobenzene at position T21

What was measured:
[1] = target: T1, wild-type Escherichia coli type II …; experiment: SEC-MALS; analytical size-exclusion chromatography with static light scattering detection; 40 uM EcAII on S200 10/300 GL in 50 mM Tris/HCl pH 7.0, 100 mM NaCl; detection at 280 and 334 nm; conditions: remark: other sources report otherwise
[2] = target: the molecule itself; experiment: as above

Binder | stoichiometry N [1] | stoichiometry N [2]
B1 | 4 | 
B2 |  | 4
B3 |  | 4
